The target in experiment [1] is T1, cynomolgus CD47 protein (cynomolgus monkey, UniProt A0A2K5X523 19-139).
T1 construct: also called cyCD47; Cyno CD47
The experiment in a line: KD; method not stated.

Experiment [2] has as its target T1, cynomolgus CD47 protein. The experiment in a line: KD; method not stated. This is another data set of the same source.
For experiment [3], the target named is T1, cynomolgus CD47 protein. Briefly: half-life of the complex; method not stated.
The target of another experiment is T2, mouse CD47 protein (mouse, UniProt Q61735 19-140, limits assumed).
T2 sequence (looked up): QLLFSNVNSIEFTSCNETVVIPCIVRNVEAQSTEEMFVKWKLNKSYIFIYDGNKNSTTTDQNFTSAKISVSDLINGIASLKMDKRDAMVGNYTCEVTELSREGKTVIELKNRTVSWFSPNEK
Briefly: column 'Cross-react with mouse'; method not stated.

Experiment [4] concerns the target T3, human CD47 protein (human, UniProt Q08722 19-139, limits assumed).
T3 construct: Soluble protein used for the KD measurements; construct not described; also called hCD47; CD47 (human)
Briefly: KD; method not stated.

Experiment [5] has as its target T1, cynomolgus CD47 protein. Briefly: KD; method not stated. The source holds these as a separate data set.
Experiment [6] has as its target T3, human CD47 protein. The experiment in a line: half-life of the complex; method not stated.
For experiment [7], the target named is T1, cynomolgus CD47 protein. The experiment in a line: half-life of the complex; method not stated. This is another data set of the same source.
The target of experiment [8] is T4, human CD47 on the cell surface (human).
T4 construct: whole, on cells; also called CHO-hCD47; CD47 on HT1080 tumor cells
The experiment in a line: flow cytometry, CHO cells stably overexpressing human CD47; positive control.

The term Kd denotes the free concentration of one partner at which half of the binding sites on the other are occupied at equilibrium, for simple one-to-one binding. One may read the EC50 as the concentration at which the effect is half-maximal.

Read-outs that look alike come from different tables or passages of the source. Some results are limits rather than exact numbers.

T3 sequence (Q08722 19-139 limits assumed): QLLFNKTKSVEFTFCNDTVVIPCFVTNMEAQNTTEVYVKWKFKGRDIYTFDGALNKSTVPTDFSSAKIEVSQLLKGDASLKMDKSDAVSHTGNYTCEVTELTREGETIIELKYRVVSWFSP

B1: CD47_P01A11_parent (antibody, V domains shown)
VH: QVQLVQSGAEVKKPGSSVKVSCKASGYTFTNYAISWVRQAPGQGLEWMGGISPLFGTANYAQKFQGRVTITADESTSTAYMELSSLRSEDTAVYYCARDGGRSSDVGWYVGAMDVWGQGTLVTVSS
VL: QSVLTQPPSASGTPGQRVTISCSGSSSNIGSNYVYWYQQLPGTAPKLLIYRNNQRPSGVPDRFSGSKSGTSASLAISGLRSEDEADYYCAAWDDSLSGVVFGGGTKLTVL
notes: also called P01A11_wt
As to B1, the figures for the Kd with cynomolgus CD47 protein [1], in the experiment with cynomolgus CD47 protein [2] and in the experiment with mouse CD47 protein were 1.02 nM, 1.3 nM and over 6800 nM, respectively. In the experiment with cynomolgus CD47 protein [3], the T1/2 was found to be 1270 s.

B2: CD47_P01A11_75 (antibody, V domains shown)
VH: QVQLVQSGAEVKKPGSSVKVSCKASGYTFSSYAISWVRQAPGQGLEWMGGISPIFGTANYAQKFQGRVTITADESTSTAYMELSSLRSEDTAVYYCARDAGRSSDVGWYVGAIDVWGQGTLVTVSS
VL: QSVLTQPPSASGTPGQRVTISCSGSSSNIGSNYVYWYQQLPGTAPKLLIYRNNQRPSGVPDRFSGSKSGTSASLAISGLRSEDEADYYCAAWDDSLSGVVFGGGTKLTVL
notes: Monospecific antibody; also called anti-CD47 antibody P01A11_75
For B2, the values for the Kd with human CD47 protein [4] and with cynomolgus CD47 protein [5] were 75 nM and 105 nM, respectively. Further, the T1/2 in the experiment with human CD47 protein [6] worked out at 29.4 s; with cynomolgus CD47 protein [7] it was 28.8 s. Also, the midpoint of the response in experiment [8], the EC50, lay at 0.98 nM.
